Laboratory results taken from paper PMC6584995, “Disruption of an amino acid transporter LHT1 leads to growth inhibition and low yields in rice” (BMC Plant Biology, 2019).

Substrate: NC(=O)C[C@H](N)C(=O)O
Assay: two-electrode voltage clamp in Xenopus oocytes, Asn-induced currents
Type: cell-based, Oryza sativa
Details: pH 5.4 (Tris/MES), currents at -140 mV, holding potential -40 mV, transport

B1: OsLHT1 (Oryza sativa Japonica Group) (protein)
chain: MGTQVADNYPPAKDGRSAQEKAIDDWLPITSSRNAKWWYSAFHNVTAMVGAGVLSLPYAMSELGWGPGIAVLILSWIITLYTLWQMVEMHEMVPGKRFDRYHELGQHAFGEKLGLWIVVPQQLVVEVGVNIVYMVTGGKSLKKFHDVLCEGHGCKNIKLTYFIMIFASVHFVLSQLPNFNSISGVSLAAAVMSLSYSTIAWGASVDKGKVADVDYHLRATTSTGKVFGFFSALGDVAFAYAGHNVVLEIQATIPSTPEKPSKKPMWKGVVVAYIIVALCYFPVALVGYWAFGNHVDDNILITLSRPKWLIALANMMVVIHVIGSYQIYAMPVFDMIETVLVKKLRFPPGLTLRLIARTLYVAFTMFIAITFPFFGGLLGFFGGFAFAPTTYFLPCIMWLAIYKPRRFSLSWFTNWICIILGVMLMILSPIGGLRQIIIDAKTYKFYS
Km: 583 ± 51 µM
